Test [1] concerns the target Chaetomium thermophilum 80S ribosome (Ct80S) (C. thermophilum (endogenous in C. thermophilum)). In words: cryo-EM structure; 400 nM C. thermophilum 80S ribosomes (with random nascent chains) mixed with full-length CtMAP2 (66 µM final), 30 min at RT, then vitrified.
Test [2] has the same target. The test is described as follows: cryo-EM structure; 400 nM C. thermophilum 80S ribosomes mixed with CtMAP2∆N (66 µM final), 30 min at RT, then vitrified; particles separated by translocation state (rotated, non-rotated).
Test [3] concerns the target Human 80S ribosome, non-translating (Hs80S) (human (endogenous in HeLa)) (UniProt P62750). In words: cryo-EM structure; 200 nM non-translating H. sapiens 80S ribosomes mixed with HsMAP2 (59 µM final), 30 min at RT, then vitrified.

Consider “Chaetomium thermophilum methionine aminopeptidase 2, full length (CtMAP2) (enzyme)”, for which the percent of purified ribosomes that accommodate MAP2 in test [1] came to 100%. In test [2], “CtMAP2(∆N1-73), autoproteolysis product of C. thermophilum MAP2 without the N-terminal extension (domain or fragment)” yielded a fold of the percentage in the A-site, against the full-length CtMAP2 dataset of 4 fold and a percent of 80S ribosomes with CtMAP2∆N at the PTE of 70%.

Substance “Human methionine aminopeptidase 2 (HsMAP2) (from UniProt P50579 1-478) (enzyme)” gave a percent of purified ribosomes that accommodate MAP2 in test [3] of 100%.

For the origin of these results see article PMC10808355.
